Tests used:
[1] = target: FITC (fluorescein isothiocyanate)-labeled RAR (RARΔAB, His-tag); experiment: fluorescence polarisation; fluorescence anisotropy; FEZ1 (1 nM to 5000 nM) titrated into 50 nM FITC-labeled RAR; 20 mM Tris pH 8.0, 50 mM NaCl, 2 mM EDTA; 10 °C; absence of all-trans retinoic acid
[2] = target: FITC (fluorescein isothiocyanate)-labeled RAR (RARΔAB, His-tag); experiment: fluorescence polarisation; fluorescence anisotropy; FEZ1 (1 nM to 5000 nM) titrated into 50 nM FITC-labeled RAR; 20 mM Tris pH 8.0, 50 mM NaCl, 2 mM EDTA; 10 °C; presence of all-trans retinoic acid (AT)

- Kd [1]: 3.4 µM
- Kd [2]: 3.8 µM
B1: Fasciculation and elongation zeta-1 (1-392) protein fused to an N-terminal 6xHis-tag (natural protein)
chain: MEAPLVSLDEEFEDLRPSCSEDPEEKPQCFYGSSPHHLEDPSLSELENFSSEIISFKSMEDLVNEFDEKLNVCFRNYNAKTENLAPVKNQLQIQEEEETLQDEEVWDALTDNYIPSLSEDWRDPNIEALNGNCSDTEIHEKEEEEFNEKSENDSGINEEPLLTADQVIEEIEEMMQNSPDPEEEEEVLEEEDGGETSSQADSVLLQEMQALTQTFNNNWSYEGLRHMSGSELTELLDQVEGAIRDFSEELVQQLARRDELEFEKEVKNSFITVLIEVQNKQKEQRELMKKRRKEKGLSLQSSRIEKGNQMPLKRFSMEGISNILQSGIRQTFGSSGTDKQYLNTVIPYEKKASPPSVEDLQMLTNILFAMKEDNEKVPTLLTDYILKVLCPT

Reference: paper PMC5757173
